According to patent US20220073599A1 (Hoffmann-La Roche, published 2022):

What was measured:
ANG2 = target: T1, ANG2 (human, UniProt O15123 19-496, limits assumed); assay: cell-based or functional assay
T1 sequence: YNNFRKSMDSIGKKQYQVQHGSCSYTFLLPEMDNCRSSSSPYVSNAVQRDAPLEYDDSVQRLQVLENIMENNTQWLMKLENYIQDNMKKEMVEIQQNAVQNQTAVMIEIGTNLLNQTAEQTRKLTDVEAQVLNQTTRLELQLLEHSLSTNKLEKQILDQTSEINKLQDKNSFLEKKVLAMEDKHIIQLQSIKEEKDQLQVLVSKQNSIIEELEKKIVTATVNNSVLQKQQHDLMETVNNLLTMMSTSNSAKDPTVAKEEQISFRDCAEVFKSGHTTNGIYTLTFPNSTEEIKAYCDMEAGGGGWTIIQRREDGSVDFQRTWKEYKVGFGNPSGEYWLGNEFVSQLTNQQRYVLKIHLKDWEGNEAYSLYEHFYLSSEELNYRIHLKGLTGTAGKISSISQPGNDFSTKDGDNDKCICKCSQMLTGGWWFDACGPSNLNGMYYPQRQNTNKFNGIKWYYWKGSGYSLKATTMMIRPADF

human Ang2-RBD-muFc = target: T2, human Ang2-RBD-muFc (human, UniProt O15123 275-496, limits assumed); assay: KinExA, human ANG2 (Ang2-RBD-muFc) by the table's title; the column's head prints VEGFA-121
T2 construct: also called Human ANG2 (KinExA); not shown: murine Fc (muFc)
T2 sequence: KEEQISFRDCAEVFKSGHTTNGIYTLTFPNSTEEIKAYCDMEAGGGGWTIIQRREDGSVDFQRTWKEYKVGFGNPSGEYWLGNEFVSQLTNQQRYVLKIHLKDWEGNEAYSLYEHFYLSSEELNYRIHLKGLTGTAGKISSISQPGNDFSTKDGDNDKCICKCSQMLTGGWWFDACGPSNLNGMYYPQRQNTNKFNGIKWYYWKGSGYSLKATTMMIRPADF
Experimental: All KinExA® experiments were performed at room temperature (RT) using PBS pH 7.4 with 0.01% BSA and 0.01% Tween® 20 (BioRad, #161-0781) as running buffer. […] A flow rate of 0.25 ml/min was used. A constant amount of Ang2-RBD-muFc (50 pM and in a second experiment 500 pM) was titrated with tested antibody by twofold serial dilution starting at 4 nM (concentration range 1.95 pM-4000 pM). Antigen-antibody complexes were incubated at RT for at least 8 h to allow equilibrium to be reached. Equilibrated mixtures were then drawn through a column of Anti-Ang2 antibody (MAB098) coupled beads in the KinExA® system at a volume of 750 μl for 50 pM constant Ang2 and at a volume of 188 μl for 500 pM constant Ang2 permitting unbound Ang2 to be captured by the beads without perturbing the equilibrium state of the solution. Bound Ang2 was detected using a second biotinylated anti-Ang2 antibody (BAM0981) with a concentration of 250 ng/ml and following by an injection of 250 ng/ml Streptavidin Alexa Fluor™ 647 conjugate in sample buffer. Each sample was measured in duplicates for all equilibrium experiments. The KD was obtained from non-linear regression analysis of the data using a one-site homogeneous binding model contained within the KinExA® software (Version 4.0.11) using the “standard analysis” method. […]

B1: Nesvacumab-analogue (antibody, human IgG1, kappa, L234A L235A, V domains shown)
VH: AVQLVASGGGLVQPGGSLRLSCAASGFTFSSYDIHWVRQATGKGLEWVSAIGPAGDTYYPGSVKGRFTISRENAKNSLYLQMNSLRAGDTAVYYCARGLITFGGLIAPFDYWGQGTLVTVSS
VL: IVLTQSPGTLSLSPGERATLSCRASQSVSSTYLAWYQQKPGQAPRLLIYGASSRATGIPDRFSGSGSGTDFTLTISRLEPEDFAVYYCQHYDNSQTFGQGTKVEIKR
notes: also called Nesvacumab (INN); Nesvacumab Mab
IC50, pTie2-Assay (Tie2 phosphorylation in Hek293 cells expressing Tie2, stimulated with Ang-2) (ANG2): 6 nM
Kd (human Ang2-RBD-muFc): 0.01 nM
